Substrate in this data set: C[C@H](N)C(=O)O
Put plainly: purified protein. As to conditions: 0.5 mM ATP, 10 mM MgCl2, 50 mM Tris-HCl pH 7.5, 25°C, 0.25 µM enzyme, 5 min, alanine 0.1-0.5 mM.

B1: Sare0718 (Salinispora arenicola) (protein)
chain: QRTSTTTTAETTTSTRATGRTNLPASPYPIHPPEPLATLSPRDRALFVRFGYGPTESVAHTHIHHAFEYWATVTPEAVAVEDGDETITYRELDQRADQLAARLAASGVRPGDRVALFVRRSIPMVVGLLAALKAGAAYVPQHVDTVPPAQLQHVIHTADTRVIMTLAATADRIPVPDGHVVITLDDLGKTEPTDLIAGRFTPATPLPPDSPCYVLFTSGSTGRPNGVVVTHRNICNILLTSPGNLGIQPGWKVGQILNIAFDMASWEILGALSHGATLVIRGSDIVETMSRVDVIIATPTVLSRTDPDRCQRVKVVAVAGEPCPRALADAWSAVCAFYNACGPTETTIVNTMSRHRPTAERLTIGRPTPNNTVYVLDADLRPCPIGTVGEMWAGGDCVSAGYLSNARLTAERYALDPFLGHGRLMFRTRDLGRWTPDGELEHFGRTDDQVKVRGFRVELDSVSAILEAVPGCTRAATIKLDDRSLVSFVAPAEVDPDLARMAVSEALPYYCVPETVHTLPELPTTSRGKIDKLALRRLVTRQDQLVTSQEQGATR
As to B1, the Km is 116.4 ± 15.9 µM and the kcat stood at 0.209893 ± 0.00852 s⁻¹.

The term Km denotes the concentration of substrate that gives half-maximal velocity. For orientation: kcat means the maximal rate divided by the concentration of active sites.

Source of the values: publication PMC3360062.
